The source of these data is US20190284292A1 (IMMUNOAH THERAPEUTICS, published 2019).

Assay [1] concerns the target T1, human 4-1BB (human, UniProt Q07011 24-255).
T1 construct: whole, on cells; Also used here for the native receptor on human T cells in the co-stimulation assay; also called CD137; h4-1BB
The assay is described as follows: binding to 293T cells expressing human 4-1BB.

In assay [2] the target is T1, human 4-1BB. The assay is described as follows: flow cytometry, staining of 293T cells transfected with human 4-1BB, compared with untransfected 293T cells. A general note: A flow cytometer gives signals particle by particle.

T1 sequence (Q07011 24-255): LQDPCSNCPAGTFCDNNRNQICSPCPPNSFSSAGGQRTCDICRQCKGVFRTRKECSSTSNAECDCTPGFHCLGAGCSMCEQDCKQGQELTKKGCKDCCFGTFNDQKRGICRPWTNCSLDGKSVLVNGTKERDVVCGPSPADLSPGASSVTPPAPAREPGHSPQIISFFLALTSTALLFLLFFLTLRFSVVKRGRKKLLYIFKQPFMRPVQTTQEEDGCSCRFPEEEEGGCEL

B1: ZW106 (antibody, V domains shown)
VH: QVQLQQPESELVRPGGSVKLSCKASGYTFTSYWMDWVKQRHGQGLEWIGNIYPDSGGTNYAEKFKSKATLTVDTSSSTAYMHLSSLTSEDSAVYYCTREEALGGYYELTYWGQGTLVTVSA
VL: DIVLTQSPASLPVSLGQRATISCRASQSVSTSSYSYMHWYQQKPGQPPKLLIKYASNLESGVPARFSGSGSGTDFTLNIHPVEEEDTATYYCQHSWEIPYTFGGGTKLEIE
notes: Mouse monoclonal antibody against human 4-1BB; also called clone ZW106; 4-1BB mAb
In the case of B1, the binding result in the assay with human 4-1BB [1] is “binds”.

B2: ZW103 (antibody, V domains shown)
VH: QVQLQQSGAELVRPGVSVKISCKGSGYTFTDYAMHWVKQSHVKSLEWIGGISTYNGDASYNQKFKGKATMTVDKSSRTAYMELVRLTSEDSAIYYCAPSNYGYAMDYWGQGTSVTVSS
VL: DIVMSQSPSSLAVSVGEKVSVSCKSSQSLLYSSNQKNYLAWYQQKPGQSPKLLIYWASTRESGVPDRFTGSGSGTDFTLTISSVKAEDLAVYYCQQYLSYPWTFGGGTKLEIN
notes: Mouse monoclonal antibody against human 4-1BB from a hybridoma; also called clone ZW103; 4-1BB mAb
On to B2, for which, in the assay with human 4-1BB [2], the binding result is “binds”.

B3: ZW104 (antibody, V domains shown)
VH: QVQLQQSGAELARPGASVKMSCKASGYIFTTYAMHWVKQRPGQGLEWIGYINPTTVYTIYNQKFKDKATLTADKSSSTAYMQLSSLTSEDSAVYYCARLGGHWYFDVWGAGTTVTVSS
VL: not shown
notes: Mouse monoclonal antibody against human 4-1BB from a hybridoma; also called clone ZW104; 4-1BB mAb
As to B3, the binding result with human 4-1BB [2] is listed as “binds”.

B4: ZW107 (antibody, V domains shown)
VH: QVQLQQSGAELVRPGTSVKISCKASGYAFTNYWLGWVKQRPGHGLEWIGDIYPGNGNNYYSEKFKDKATLTADKSSSTVYIRLSSLTSEDSAVYFCARHGSFRSAMDYWGQGTSVTVSS
VL: DIQMTQSPASPSASVGETVTITCRASENIYSYLAWYQQKQGKSPQLLVYNAKTLADGVPSRFSGSGSGTQFSLKINSLQPEDFGSYYCQHHYGTPPTFGGGTKLEIK
notes: Mouse monoclonal antibody against human 4-1BB; also called clone ZW107; 4-1BB mAb
As to B4, in the assay with human 4-1BB [1], the binding result was “binds”.
